# In patent US20230105457A1, “Immunogenic Compounds For Treatment Of Adrenal Cancer” (ENTEROME S.A., priority 2019, published 2023):
# Like-named read-outs stand apart in the source and are kept apart here.
# What was measured:
# HLA-A*0201 = HLA-A*0201 (Homo sapiens, UniProt P04439, D140Y/D185E/D98H/E176V/E277Q/G131W/G231S/I119V/I121R/I166T/I218V/L300P/L318F/N151K/N90K/P208A/P217A/Q86G/Q94H/R138H/R169H/T345S)
# Method: T2 cells (2·10^5 cells per well) are incubated with decreasing concentrations of peptides from 100 μM to 0.1 μM in a AIMV medium supplemented with 100 ng/μl of human P2m at 37° C. for 16 hours.
# The analysis is achieved by FACS (Guava Easy Cyte).
# The relative affinity is then determined as follows:
# Each peptide is solubilized by taking into account the amino acid composition. […] Other peptides are resuspended in water or PBS pH7.4.
# T2 cells (2·10^5 cells per well) were incubated with decreasing concentrations of peptides from 100 μM to 0.1 μM in a AIMV medium supplemented with 100 ng/μl of human P2m at 37° C. for 16 hours.
# The analysis was achieved by FACS (Guava Easy Cyte).
# [1] = biological target: T1, HLA-A*0201 molecule expressed on human tumor cell line T2 (human); experiment: T2 cell HLA-A2 stabilisation, FACS; 20% of signal of HIV pol 589-597 at 100 µM
# T1 construct: surface HLA-A2 read with anti-HLA-A2 antibody BB7.2-PE by FACS; also called HLA-A2
# [2] = biological target: T1, HLA-A*0201 molecule expressed on human …; experiment: T2 cell HLA-A2 stabilisation, FACS; ratio of 20% concentration to that of HIV pol 589-597 (lower = stronger)
# [3] = biological target: T1, HLA-A*0201 molecule expressed on human …; experiment: T2 cell HLA-A2 stabilisation, FACS; peptide at 25 µM
# [4] = biological target: T1, HLA-A*0201 molecule expressed on human …; experiment: T2 cell HLA-A2 stabilisation, FACS; peptide at 50 µM
# [5] = biological target: T1, HLA-A*0201 molecule expressed on human …; experiment: T2 cell HLA-A2 stabilisation, FACS; peptide at 100 µM
# [6] = biological target: T1, HLA-A*0201 molecule expressed on human …; experiment: T2 cell HLA-A2 stabilisation, FACS; peptide at 6.25 µM
# [7] = biological target: T1, HLA-A*0201 molecule expressed on human …; experiment: T2 cell HLA-A2 stabilisation, FACS; peptide at 3.125 µM
# [8] = biological target: T1, HLA-A*0201 molecule expressed on human …; experiment: T2 cell HLA-A2 stabilisation, FACS; 20% of signal of HIV pol 589-597 at 100 µM; remark: listed apart in the source
# [9] = biological target: T1, HLA-A*0201 molecule expressed on human …; experiment: T2 cell HLA-A2 stabilisation, FACS; ratio of 20% concentration to that of HIV pol 589-597 (lower = stronger); remark: listed apart in the source
# [10] = biological target: T1, HLA-A*0201 molecule expressed on human …; experiment: T2 cell HLA-A2 stabilisation, FACS; peptide at 1.5625 µM
# [11] = T2 cell line, HLA-A*0201, Example 13, protocol as in Example 3
# [12] = HLA-A*0201, HIV peptide printed as 1
molecule,measurement,setting,value
"RVSSYLVPI (listed as Homo sapiens) [FOXM1-H, reference compound]",Concentration of peptide that induces 20% of HLA-A2 expression,"HLA-A*0201; Table 14, Example 8",37.6 µM
FMPFGFILGV [IL13RA2-B3],Concentration of peptide that induces 20% of HLA-A2 expression,HLA-A*0201; [11],3.3 µM
"HIV: Reference peptide HIV pol 589-597, positive control (ISPIETVPV; UniProt P04585 589-597, looked up, fragment) [reference compound]",In vitro binding affinity,HLA-A*0201; [12],1
same,Concentration of peptide that induces 20% of HLA-A2 expression,"HLA-A*0201; Table 17, Example 12",0.85 µM
same,In vitro binding affinity,"HLA-A*0201; Table 17, Example 12, relative affinity vs HIV",1.00
same,Relative HLA-A2 labelling on T2 cells (HIV at 100 μM = 100),"HLA-A*0201; Table 18, peptide concentration 0.1 μM",2.405
same,Relative HLA-A2 labelling on T2 cells (HIV at 100 μM = 100),"HLA-A*0201; Table 18, peptide concentration 1 μM",22.14
same,Relative HLA-A2 labelling on T2 cells (HIV at 100 μM = 100),"HLA-A*0201; Table 18, peptide concentration 10 μM",84.725
same,Relative HLA-A2 labelling on T2 cells (HIV at 100 μM = 100),"HLA-A*0201; Table 18, peptide concentration 100 μM",100
YMPFGFILV [IL13RA2-B4],Concentration of peptide that induces 20% of HLA-A2 expression,HLA-A*0201; [11],4.5 µM
FMPFGFILPI [IL13RA2-B6],Concentration of peptide that induces 20% of HLA-A2 expression,HLA-A*0201; [11],5.9 µM
RLSSYLVEI [FOXM1-B],Concentration of peptide that induces 20% of HLA-A2 expression,"HLA-A*0201; Table 14, Example 8",46.7 µM
YLPFGFILV [IL13RA2-B5],Concentration of peptide that induces 20% of HLA-A2 expression,HLA-A*0201; [11],1.5 µM
"ALPFGFILV [1A9V, reference compound]",Concentration of peptide that induces 20% of HLA-A2 expression,HLA-A*0201; [11],20.9 µM
same,Concentration of peptide that induces 20% of HLA-A2 expression,"HLA-A*0201; Table 12, Example 7",36.5 µM
YLYTFLIST [IL13RA2-B2],In vitro binding affinity,HLA-A*0201; [12],5.97
same,Concentration of peptide that induces 20% of HLA-A2 expression,HLA-A*0201; [11],4.5 µM
"LMLGEFLKL [2M, reference compound]",Concentration of peptide that induces 20% of HLA-A2 expression,"HLA-A*0201; Table 17, Example 12",2.87 µM
FMPFGFILGV [IL13RA2-B3],Concentration of peptide that induces 20% of HLA-A2 expression,[1],3.3 µM
same,In vitro binding affinity (relative affinity),[2],4.39
YTLGEFLYI [BIRC5-B2],mean relative fluorescence intensity,[3],29.6 relative (HIV peptide = 100)
same,mean relative fluorescence intensity,[4],54.4 relative (HIV peptide = 100)
same,mean relative fluorescence intensity,[5],58 relative (HIV peptide = 100)
same,mean relative fluorescence intensity,[6],9 relative (HIV peptide = 100)
same,mean relative fluorescence intensity,[7],6.6 relative (HIV peptide = 100)
same,Concentration of peptide that induces 20% of HLA-A2 expression,[8],14.7 µM
same,In vitro binding affinity (relative affinity),[9],4.5
LMDLSTTPL [FOXM1-H2],mean relative fluorescence intensity,[3],65.4 relative (HIV peptide = 100)
same,mean relative fluorescence intensity,[4],62.5 relative (HIV peptide = 100)
same,mean relative fluorescence intensity,[5],77.6 relative (HIV peptide = 100)
same,mean relative fluorescence intensity,[6],19.7 relative (HIV peptide = 100)
same,mean relative fluorescence intensity,[7],0.9 relative (HIV peptide = 100)
same,mean relative fluorescence intensity,[10],5.3 relative (HIV peptide = 100)
same,Concentration of peptide that induces 20% of HLA-A2 expression,[8],12.6 µM
same,In vitro binding affinity (relative affinity),[9],2.5
FMPFGFILPI [IL13RA2-B6],Concentration of peptide that induces 20% of HLA-A2 expression,[1],5.9 µM
same,In vitro binding affinity (relative affinity),[2],6.86
GLLGEFLQI [BIRC5-B3],mean relative fluorescence intensity,[3],20.9 relative (HIV peptide = 100)
same,mean relative fluorescence intensity,[4],29.8 relative (HIV peptide = 100)
same,mean relative fluorescence intensity,[5],35 relative (HIV peptide = 100)
same,mean relative fluorescence intensity,[7],8.9 relative (HIV peptide = 100)
same,mean relative fluorescence intensity,[10],9.4 relative (HIV peptide = 100)
same,Concentration of peptide that induces 20% of HLA-A2 expression,[8],22.9 µM
same,In vitro binding affinity (relative affinity),[9],7
RLSSYLVEI [FOXM1-B],mean relative fluorescence intensity,[3],7.6 relative (HIV peptide = 100)
same,mean relative fluorescence intensity,[4],21.3 relative (HIV peptide = 100)
same,mean relative fluorescence intensity,[5],47.5 relative (HIV peptide = 100)
same,mean relative fluorescence intensity,[6],0 relative (HIV peptide = 100)
same,mean relative fluorescence intensity,[7],0 relative (HIV peptide = 100)
same,mean relative fluorescence intensity,[10],0 relative (HIV peptide = 100)
same,Concentration of peptide that induces 20% of HLA-A2 expression,[8],46.7 µM
same,In vitro binding affinity (relative affinity),[9],4.6
WLPFGFILI [IL13RA2-H],mean relative fluorescence intensity,[3],11.2 relative (HIV peptide = 100)
same,mean relative fluorescence intensity,[4],14.2 relative (HIV peptide = 100)
same,mean relative fluorescence intensity,[5],26.5 relative (HIV peptide = 100)
same,mean relative fluorescence intensity,[6],9.6 relative (HIV peptide = 100)
same,mean relative fluorescence intensity,[7],3.7 relative (HIV peptide = 100)
same,mean relative fluorescence intensity,[10],3 relative (HIV peptide = 100)
same,Concentration of peptide that induces 20% of HLA-A2 expression,[1],62.3 µM
same,In vitro binding affinity (relative affinity),[2],78.8
RVSSYLVPI [FOXM1-H],mean relative fluorescence intensity,[3],10.5 relative (HIV peptide = 100)
same,mean relative fluorescence intensity,[4],30.7 relative (HIV peptide = 100)
same,mean relative fluorescence intensity,[5],83.8 relative (HIV peptide = 100)
same,mean relative fluorescence intensity,[6],0 relative (HIV peptide = 100)
same,mean relative fluorescence intensity,[7],0 relative (HIV peptide = 100)
same,mean relative fluorescence intensity,[10],0 relative (HIV peptide = 100)
same,Concentration of peptide that induces 20% of HLA-A2 expression,[8],37.6 µM
same,In vitro binding affinity (relative affinity),[9],3.7
LMDLSTTEV [FOXM1-B2],mean relative fluorescence intensity,[3],98.2 relative (HIV peptide = 100)
same,mean relative fluorescence intensity,[4],91.5 relative (HIV peptide = 100)
same,mean relative fluorescence intensity,[5],105 relative (HIV peptide = 100)
same,mean relative fluorescence intensity,[6],33.5 relative (HIV peptide = 100)
same,mean relative fluorescence intensity,[7],12.7 relative (HIV peptide = 100)
same,mean relative fluorescence intensity,[10],7.2 relative (HIV peptide = 100)
same,Concentration of peptide that induces 20% of HLA-A2 expression,[8],6.7 µM
same,In vitro binding affinity (relative affinity),[9],1.3
"FMPFGFILV [IL13RA2-B2 (SEQ ID NO: 64, Example 13)]",Concentration of peptide that induces 20% of HLA-A2 expression,[1],4.5 µM
same,In vitro binding affinity (relative affinity),[2],5.97
YMPFGFILV [IL13RA2-B4],Concentration of peptide that induces 20% of HLA-A2 expression,[1],4.5 µM
same,In vitro binding affinity (relative affinity),[2],5.24
YLPFGFILV [IL13RA2-B5],Concentration of peptide that induces 20% of HLA-A2 expression,[1],1.5 µM
same,In vitro binding affinity (relative affinity),[2],1.76
